Substitutions are numbered along the chain they refer to. Numbers in names are those of the source.

In test [1] the target is T1, ALKTG (human ALK amino acids 648-985) (human, UniProt Q9UM73 648-985, N-linked glycans; EndoH-trimmed for crystals and SEC-MALLS).
T1 construct: Fc-His6 tag removed by caspase 3; also called ALK TG supradomain
The experiment in a line: ITC. How it is done: (§1) Experiments were performed using a MicroCal PEAQ-ITC instrument at 310K. Proteins used in ITC experiments were expressed in HEK293S cells grown in suspension. As a final purification step all proteins were buffer exchanged to the same HBS buffer via size-exclusion chromatography. Titrations were preceded by an initial injection of 0.5 μL. The injection spacing was optimized per experiment to allow for the signal to get back to a stable baseline. Throughout the titration the sample was stirred at a speed of 750 r.p.m. Data were analyzed using the PEAQ-ITC analysis software (version 1.1.0.1262, Malvern) and fit using a “one set of sites” model.
(In general: Isothermal titration calorimetry measures the heat released or taken up as one component is titrated into another.)

Test [2] addresses T2, ALKTG-EGFL (human ALK amino acids 648-1025) (human, UniProt Q9UM73 648-1025, N-linked glycans; EndoH-trimmed (deglycosylated) for crystals and SEC-MALLS).
T2 construct: The C-terminal Fc-His6 tag was removed by caspase 3; also called ALK (in BLI, SEC-MALLS and ITC)
In words: ITC, 310 K, one-site model. How it is done:
(§2) FIG. 5A and FIG. 5B Isothermal titration calorimetry thermograms for the titration of ALK_TG-EGFL (10 μM) with ALKAL2 (100 μM) (FIG. 5A) and titration of ALKAL1 (25 μM) with ALK_TG-EGFL (210 μM) (FIG. 5B). […] The right panel represents the binding isotherm obtained from the integration of the raw data and fitted to a one-site model. Standard deviations were calculated based on 3 measurements.
as §1

Test [3] addresses T3, LTKTG-EGFL (human LTK amino acids 63-420) (human, UniProt P29376 63-420).
T3 construct: Fc-His6 tag removed by caspase 3; also called LTK (in BLI, SEC-MALLS and ITC)
T3 sequence: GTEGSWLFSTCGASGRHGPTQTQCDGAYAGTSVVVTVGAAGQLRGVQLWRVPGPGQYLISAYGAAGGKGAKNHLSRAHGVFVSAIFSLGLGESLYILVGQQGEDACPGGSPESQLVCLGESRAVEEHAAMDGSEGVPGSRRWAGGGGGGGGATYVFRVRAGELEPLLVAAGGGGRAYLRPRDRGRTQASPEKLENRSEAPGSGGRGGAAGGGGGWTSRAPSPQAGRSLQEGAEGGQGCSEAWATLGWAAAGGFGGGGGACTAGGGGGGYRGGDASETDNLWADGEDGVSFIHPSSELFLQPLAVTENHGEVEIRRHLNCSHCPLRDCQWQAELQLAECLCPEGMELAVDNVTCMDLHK
In words: ITC, 310 K, one-site model, 2:1 stoichiometry. How it is done:
(§3) The right panel represents the binding isotherm obtained from the integration of the raw data and fitted to a one-site model. Standard deviations were calculated based on 3 measurements.
as §1

Test [4] addresses T4, ALKFL (full-length human ALK ectodomain, amino acids 19-1025) (human, UniProt Q9UM73 19-1025).
T4 construct: Fc-His6 tag removed by caspase 3; also called full-length ALK ectodomain
The experiment in a line: ITC at 310 K, ALKFL (8 µM) titrated with ALKAL2 (82 µM), one-site model.

The target of test [5] is T1, ALKTG (human ALK amino acids 648-985). In words: ITC at 310 K, ALKAL2 (33 µM) titrated with ALKTG (330 µM), one-site model. How it is done:
FIG. 5D, Titration of ALKAL2 (33 μM) with ALKTG (330 μM) Standard deviations were calculated based on 3 measurements.
as §1

Test [6] concerns the target T5, LTKTG (human LTK amino acids 63-379) (human, UniProt P29376 63-379).
T5 construct: also called LTK TG supradomain
T5 sequence: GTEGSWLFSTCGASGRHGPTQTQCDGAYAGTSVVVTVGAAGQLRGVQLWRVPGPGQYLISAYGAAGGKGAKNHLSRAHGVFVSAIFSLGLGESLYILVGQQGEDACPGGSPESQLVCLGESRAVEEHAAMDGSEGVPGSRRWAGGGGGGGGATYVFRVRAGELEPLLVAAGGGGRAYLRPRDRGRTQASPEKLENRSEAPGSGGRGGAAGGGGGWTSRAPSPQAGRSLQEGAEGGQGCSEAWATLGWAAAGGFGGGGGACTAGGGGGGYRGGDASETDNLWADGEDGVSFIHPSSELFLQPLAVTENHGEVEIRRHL
The experiment in a line: ITC at 310 K, LTKTG (10 µM) titrated with ALKAL2 (100 µM), one-site model. How it is done: FIG. 12G, ITC experiments for the titration of LTKTG (10 μM) with ALKAL2 (100 μM) Standard deviations were calculated based on 2 measurements.
as §1

Test [7] addresses T2, ALKTG-EGFL (human ALK amino acids …). The experiment in a line: ITC at 310 K, ALKTG-EGFL (10 µM) titrated with ALKAL2 (100 µM), one-site model. How it is done:
as §2, §1

Test [8] addresses T3, LTKTG-EGFL (human LTK amino acids …). The experiment in a line: ITC at 310 K, LTKTG-EGFL (12 µM) titrated with ALKAL2 (56 µM), one-site model. How it is done: as §3, §1
Test [9] has as its target T2, ALKTG-EGFL (human ALK amino acids …). The experiment in a line: BLI, biotinylated ALKAL2 on streptavidin biosensors, ALKTG-EGFL in solution 800 nM to 12.5 nM, 1:1 model. From the text:
(§4) FIGS. 10A and 10B Representative response curves as measure by biolayer-interferometry (BLI) for the interaction of WT ALKAL1 and ALKAL1 mutants (containing charge-reversal mutations of residues involved in site 1) (FIG. 10A) and WT ALKAL2 and ALKAL2 mutants (FIG. 10B) with ALK_TG-EGFL and LTK_TG-EGFL. For WT ALKALs LTK curves were fitted with a 2:1 binding model (red) while for ALK a 1:1 model was used. Start and end concentrations of the 3-fold dilution series used for the WT measurements is shown as an inset while for all mutants a […] dilution series from 6.4 μM-400 nM was used.
(§5) All measurements of binding kinetics and dissociation constants were performed using an Octet Red 96 (Forté Bio) in assay buffer (20 mM HEPES pH 7.4, 150 mM NaCl, 0.02% (w/v) BSA, 0.002% (v/v) Tween 20) at 298K. ALKALs were immobilized to a level of 0.5 nm on streptavidin-coated biosensors (Forté Bio). To verify that no a specific binding was present during the assay, non-functionalized biosensors were used as a control by measuring in parallel all ligand concentrations as well as running buffer. For all mutants a two-fold dilution series from 6.4 μM-400 nM was employed. Data analysis was performed using the Data Analysis software 9.0.0.14 (Forté Bio) and binding curves were exported to Prism8 (Graphpad Software) for plotting of curves.
A general note: In BLI a coated tip is dipped into the sample, and binding shifts an interference pattern.

Test [10] deals with T3, LTKTG-EGFL (human LTK amino acids …). In words: BLI, biotinylated ALKAL2 on streptavidin biosensors, LTKTG-EGFL in solution 300 nM to 11 nM, 2:1 binding model, component 1.
Source text: as §4, §5

For test [11] the target is unchanged. In words: BLI, biotinylated ALKAL2 on streptavidin biosensors, LTKTG-EGFL in solution 300 nM to 11 nM, 2:1 binding model, component 2.
Source text: as §4, §5

Test [12] addresses T1, ALKTG (human ALK amino acids 648-985). In words: ITC at 310 K, ALKAL1 (33 µM) titrated with ALKTG (330 µM), one-site model. As to the method:
FIG. 5E, Titration of ALKAL1 (33 μM) with ALKTG (330 μM) Standard deviations were calculated based on 3 measurements.
as §1

Test [13] deals with T5, LTKTG (human LTK amino acids 63-379). In words: ITC at 310 K, LTKTG (10 µM) titrated with ALKAL1 (70 µM), one-site model. How it is done:
FIG. 12F, ITC experiments for the titration of LTKTG (10 μM) with ALKAL1 (70 μM) Standard deviations were calculated based on 2 measurements.
as §1

Test [14] has as its target T3, LTKTG-EGFL (human LTK amino acids …). The experiment in a line: ITC at 310 K, LTKTG-EGFL (5 µM) titrated with ALKAL1 (56 µM), one-site model. As to the method: as §3, §1
The target in test [15] is T2, ALKTG-EGFL (human ALK amino acids …). The experiment in a line: ITC at 310 K, ALKAL1 (25 µM) titrated with ALKTG-EGFL (210 µM), one-site model. How it is done:
as §2, §1

Test [16] shares this target. The experiment in a line: BLI, biotinylated ALKAL1 on streptavidin biosensors, ALKTG-EGFL in solution 6 µM to 400 nM, 1:1 model.
Source text: as §4, §5

Test [17] has as its target T3, LTKTG-EGFL (human LTK amino acids …). In words: BLI, biotinylated ALKAL1 on streptavidin biosensors, LTKTG-EGFL in solution 300 nM to 11 nM, 2:1 binding model, component 1.
Source text: as §4, §5

Test [18] shares this target. The experiment in a line: BLI, biotinylated ALKAL1 on streptavidin biosensors, LTKTG-EGFL in solution 300 nM to 11 nM, 2:1 binding model, component 2.
Source text: as §4, §5

Test [19] shares this target. The experiment in a line: BLI, biotinylated ALKAL1 R102E on streptavidin biosensors, LTKTG-EGFL in solution, dilution series 6.4 µM-400 nM.
Source text: as §4, §5

T4 sequence (Q9UM73 19-1025): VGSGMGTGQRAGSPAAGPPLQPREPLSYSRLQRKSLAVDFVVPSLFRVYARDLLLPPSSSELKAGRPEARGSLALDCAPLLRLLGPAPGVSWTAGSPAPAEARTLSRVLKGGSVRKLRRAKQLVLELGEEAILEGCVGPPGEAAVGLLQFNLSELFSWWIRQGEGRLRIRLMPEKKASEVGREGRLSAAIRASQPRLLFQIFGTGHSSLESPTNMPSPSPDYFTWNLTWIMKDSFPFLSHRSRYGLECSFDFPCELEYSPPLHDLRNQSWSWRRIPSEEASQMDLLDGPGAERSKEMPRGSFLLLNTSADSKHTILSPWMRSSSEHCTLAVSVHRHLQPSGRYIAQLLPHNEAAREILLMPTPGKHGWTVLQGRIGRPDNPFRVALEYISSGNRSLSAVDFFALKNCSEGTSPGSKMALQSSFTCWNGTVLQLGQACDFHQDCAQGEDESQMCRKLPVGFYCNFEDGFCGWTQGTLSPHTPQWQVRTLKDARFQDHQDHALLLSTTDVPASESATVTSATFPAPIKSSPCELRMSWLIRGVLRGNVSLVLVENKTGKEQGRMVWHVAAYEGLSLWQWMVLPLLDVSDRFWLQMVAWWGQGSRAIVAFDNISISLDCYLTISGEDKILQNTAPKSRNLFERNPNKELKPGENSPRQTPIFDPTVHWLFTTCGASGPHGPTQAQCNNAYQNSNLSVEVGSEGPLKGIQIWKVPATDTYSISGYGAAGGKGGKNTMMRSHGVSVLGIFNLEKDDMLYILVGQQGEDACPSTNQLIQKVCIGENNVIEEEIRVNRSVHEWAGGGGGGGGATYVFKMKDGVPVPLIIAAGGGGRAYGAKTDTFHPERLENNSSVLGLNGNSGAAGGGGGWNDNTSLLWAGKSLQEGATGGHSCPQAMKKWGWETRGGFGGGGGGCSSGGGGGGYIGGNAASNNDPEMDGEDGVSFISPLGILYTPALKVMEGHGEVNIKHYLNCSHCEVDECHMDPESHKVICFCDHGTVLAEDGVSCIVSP
T1 sequence (Q9UM73 648-985 limits assumed): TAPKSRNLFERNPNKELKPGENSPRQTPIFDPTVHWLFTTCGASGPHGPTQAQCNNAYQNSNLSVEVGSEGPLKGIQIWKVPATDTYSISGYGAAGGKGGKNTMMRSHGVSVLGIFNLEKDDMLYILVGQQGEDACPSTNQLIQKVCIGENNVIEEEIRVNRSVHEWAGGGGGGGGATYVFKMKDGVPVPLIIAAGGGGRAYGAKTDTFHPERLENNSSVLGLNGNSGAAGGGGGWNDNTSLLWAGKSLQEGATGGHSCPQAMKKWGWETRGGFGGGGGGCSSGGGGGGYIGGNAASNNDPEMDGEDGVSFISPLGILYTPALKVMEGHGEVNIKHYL
T2 sequence (Q9UM73 648-1025): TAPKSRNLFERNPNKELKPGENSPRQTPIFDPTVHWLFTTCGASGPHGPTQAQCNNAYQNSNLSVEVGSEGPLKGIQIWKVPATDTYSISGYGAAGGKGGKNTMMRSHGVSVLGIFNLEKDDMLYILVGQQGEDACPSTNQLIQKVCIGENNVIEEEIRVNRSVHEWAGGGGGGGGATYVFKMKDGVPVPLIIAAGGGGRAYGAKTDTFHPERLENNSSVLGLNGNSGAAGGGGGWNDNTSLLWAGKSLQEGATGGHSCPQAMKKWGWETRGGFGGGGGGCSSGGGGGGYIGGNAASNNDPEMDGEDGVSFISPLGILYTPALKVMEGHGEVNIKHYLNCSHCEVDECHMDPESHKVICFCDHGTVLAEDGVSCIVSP

B1: ALKAL2 (truncated, residues 78-152) (ligand, human, UniProt Q6UX46 78-152, looked up)
chain: PSPEQRVEIVPRDLRMKDKFLKHLTGPLYFSPKCSKHFHRLYHNTRDCTIPAYYKRCARLLTRLAVSPVCMEDKQ
notes: range 78-152; Tag-free in ITC, SEC-MALLS, crystals and Ba/F3 assays; also called ALKAL2^WT; WT ALKAL2
As to B1, in test [1], the “fold decrease in affinity against ALKTG-EGFL” value came to 30 fold. Further, the Kd (as a rule, the constant that tells how readily two partners part at equilibrium) was 40 nM in test [2]; 55 nM in test [3]; 70 nM in [4]; 1300 nM in test [5]; 6.8 nM in test [6]; 10 nM in [8]. Further, the Kd came to 135 nM in test [9], 100 nM in test [10] and 350 nM in [11]. The ΔG in test [4] was -9.4 kcal/mol; in [5] it was -8.34 kcal/mol; in [6], -11.6 kcal/mol; in [7], -10.6 kcal/mol; in [8] it was -11.4 kcal/mol. Also, the ΔH in test [4] was -9.7 kcal/mol; in [5], -8.3 kcal/mol; in test [6] it was -30.2 kcal/mol; in test [7], -10.1 kcal/mol; in test [8] it was -31 kcal/mol. Also, the koff (in general, the rate constant with which the complex falls apart) in test [10] stood at 0.0037 s⁻¹; in [11], 0.0005 s⁻¹. The values for the kon in test [10] and in test [11] were 28000 M⁻¹ s⁻¹ and 4000 M⁻¹ s⁻¹, respectively.

B2: ALKAL1 (truncated, residues 57-129) (ligand, human, UniProt Q6UXT8 57-129, looked up)
chain: PSGSRSAEIFPRDSNLKDKFIKHFTGPVTFSPECSKHFHRLYYNTRECSTPAYYKRCARLLTRLAVSPLCSQT
notes: range 57-129; Tag-free in ITC, SEC-MALLS, crystals and Ba/F3 assays; also called ALKAL1^WT; WT ALKAL1
For the molecule B2, in test [1], the “fold decrease in affinity against ALKTG-EGFL” value amounted to 4 fold. Further, the Kd in [2] was 600 nM; in test [3], 10 nM; in test [12], 2500 nM; in test [13] it was 69 nM; in [14], 55 nM; in test [16], 760 nM. Besides, the results for the equilibrium dissociation constant (Kd) in [17] and in test [18] were 48 nM and 31 nM, respectively. Moreover, the ΔG in test [12] is -7.95 kcal/mol; in test [13], -10.2 kcal/mol; in test [14] it was -10.4 kcal/mol; in test [15], -8.93 kcal/mol. Besides, the ΔH in [12] was -5.5 kcal/mol; in test [13], -28.6 kcal/mol; in [14], -29.4 kcal/mol; in [15], -7.3 kcal/mol. The koff in test [16] worked out at 0.093 s⁻¹; in test [17] it was 0.0025 s⁻¹; in test [18], 0.026 s⁻¹. For the same molecule, the results for the kon in test [16], in test [17] and in test [18] were 130000 M⁻¹ s⁻¹, 52000 M⁻¹ s⁻¹ and 860000 M⁻¹ s⁻¹, respectively.

B3: ALKAL1^R102E (residues 57-129) (ligand, human, UniProt Q6UXT8 57-129, looked up)
chain: B2 chain with R46E
notes: range 57-129; also called ALKAL1 site 1 mutant R102E
For the molecule B3, in test [19], binding was put at a Kd of 14000 nM.

For the origin of these results see US20250027060A1 (VIB VZW, published 2025).
